According to patent US20250122303A1 (HUMMINGBIRD BIOSCIENCE PTE, published 2025):
Like-named read-outs stand apart in the source and are kept apart here.

What was measured:
rat HER3 = target: T1, rat HER3 (rat, UniProt Q62799 20-641, limits assumed); assay: ELISA, plate coated with 0.1 ug/ml rat HER3, antibody titrated, absorbance 450 nm
T1 construct: also called rat homologue of HER3 (Sino Biological Inc.); R. norvegicus HER3
Protocol: (§1) ELISAs were used to determine the binding specificity of the antibodies. The antibodies were analysed for binding to human HER3 polypeptide, as well as respective mouse, rat and monkey homologues of HER3 (Sino Biological Inc., China). The antibodies were also analysed for their ability to bind to human EGFR and human HER2 (Sino Biological Inc., China).
(§2) ELISAs were carried out according to standard protocols. Briefly, 96-well plates (Nunc, Denmark) were coated with 0.1 μg/ml of target polypeptide in phosphate-buffered saline (PBS) for 16 h at 4° C. After blocking for 1 h with 1% BSA in Tris buffer saline (TBS) at room temperature, the anti-HER3 antibody was serially diluted with the highest concentration being 10 μg/ml, and added to the plate. Post 1 h incubation at room temperature, plates were washed three times with TBS containing 0.05% Tween 20 (TBS-T) and were then incubated with a HRP-conjugated […] antibody (Life Technologies, Inc., USA) for 1 h at room temperature. After washing, plates were developed with colorimetric detection substrate 3,3′,5,5′-tetramethylbenzidine (Turbo-TMB; Pierce, USA) for 10 min. The reaction was stopped with 2M H₂SO₄, and OD was measured at 450 nm.

mouse HER3 = target: T2, mouse HER3 (mouse, UniProt Q61526 20-641); assay: ELISA, plate coated with 0.1 ug/ml mouse HER3, antibody titrated, absorbance 450 nm
T2 construct: also called mouse homologue of HER3 (Sino Biological Inc.); M. musculus HER3
T2 sequence (Q61526 20-641 limits assumed): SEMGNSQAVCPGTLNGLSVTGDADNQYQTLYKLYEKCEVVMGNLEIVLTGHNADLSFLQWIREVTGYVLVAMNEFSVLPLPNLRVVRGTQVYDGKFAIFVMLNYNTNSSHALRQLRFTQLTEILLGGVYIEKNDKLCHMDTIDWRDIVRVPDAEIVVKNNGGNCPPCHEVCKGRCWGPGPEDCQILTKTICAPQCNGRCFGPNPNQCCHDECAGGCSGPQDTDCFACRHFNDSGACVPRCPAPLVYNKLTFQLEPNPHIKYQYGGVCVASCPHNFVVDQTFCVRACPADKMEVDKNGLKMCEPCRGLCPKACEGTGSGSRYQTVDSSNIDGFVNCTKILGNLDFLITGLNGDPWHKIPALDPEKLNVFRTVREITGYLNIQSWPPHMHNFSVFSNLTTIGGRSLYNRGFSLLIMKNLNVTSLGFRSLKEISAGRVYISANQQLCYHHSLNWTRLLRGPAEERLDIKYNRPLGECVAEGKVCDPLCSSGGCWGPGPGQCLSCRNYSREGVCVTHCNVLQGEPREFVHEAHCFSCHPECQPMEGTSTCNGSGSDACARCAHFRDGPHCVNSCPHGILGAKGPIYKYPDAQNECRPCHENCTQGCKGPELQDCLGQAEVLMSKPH
Protocol: as §1, §2

human EGFR = target: T3, human EGFR (human, UniProt P00533 25-645); assay: ELISA, plate coated with 0.1 ug/ml human EGFR, antibody titrated, absorbance 450 nm
T3 construct: also called human HER1 (EGFR) (Sino Biological Inc.)
Protocol: as §1, §2

human HER2 = target: T4, human HER2 (human, UniProt P04626 23-652); assay: ELISA, plate coated with 0.1 ug/ml human HER2, antibody titrated, absorbance 450 nm
T4 construct: also called human HER2 (Sino Biological Inc.)
Protocol: as §1, §2

His-tagged human HER3 [1] = target: T5, His-tagged human HER3 (human, UniProt P21860 20-643); assay: BLI (Octet QK384), antibody on anti-human IgG capture tips, His-tagged human HER3 in solution, global one-site fit
T5 construct: Antigen of the BLI experiments and of the HER2-Fc dimerisation ELISA; also called HER3 His; not shown: His tag
Protocol: (§3) The anti-HER3 antibody clones in IgG1 format were analysed for binding affinity to human HER3. Bio-Layer Interferometry (BLI) experiments were performed using the Octet QK384 system (ForteBio). anti-Human IgG Capture (AHC) Octet sensor tips (Pall ForteBio, USA) were used to anti-HER3 antibodies (25 nM). All measurements were performed at 25° C. with agitation at 1000 rpm. […] Sensograms were referenced for buffer effects and then fitted using the Octet QK384 user software (Pall ForteBio, USA). Kinetic responses were subjected to a global fitting using a one site binding model to obtain values for association (Kₒₙ), dissociation (Koff) rate constants and the equilibrium dissociation constant (KD). Only curves that could be reliably fitted with the software (R²>0.90) were included in the analysis.

[2] = target: T6, human HER3 expressed on cells (HEK293 HER3 O/E cells) (human, UniProt P21860 20-1342); assay: flow cytometry, HEK293 cells overexpressing human HER3, 20 ug/ml antibody, FITC anti-Fc secondary; same antibody on WT HEK293: 17.31
T6 construct: Also used here for HER3 on U2OS cells of the PathHunter kit and on cancer cell lines; also called HEK293 cells transfected with vector encoding human HER3; human HER3-expressing cells
Protocol: (§4) The cells were washed thrice with FACS buffer (PBS with 5 mM EDTA and 0.5% BSA) and resuspended in FITC-conjugated anti-FC antibody (Invitrogen, USA) for 40 min at 2-8° C. Cells were washed again and resuspended in 200 μL of FACS flow buffer (PBS with 5 mM EDTA) for flow cytometric analysis using MACSQuant 10 (Miltenyi Biotec, Germany). After acquisition, all raw data were analyzed using Flowlogic software. Cells were gated using forward and side scatter profile percentage of positive cells was determined for native and overexpressing cell populations.

[3] = target: T6, human HER3 expressed on cells (HEK293 …); assay: as above; remark: listed apart in the source
Protocol: as §4

His-tagged human HER3 [4] = target: T5, His-tagged human HER3; assay: BLI (Octet QK384), antibody on anti-human IgG capture tips, His-tagged human HER3 35-278 nM, global 1:1 fit
Protocol: as §3

His-tagged human HER3 [5] = target: T5, His-tagged human HER3; assay: BLI (Octet QK384), antibody on anti-human IgG capture tips, His-tagged human HER3 in solution, global 1:1 fit, R^2 = 0.9946, kon Error 5.99E+03; Response 0.119 / 0.2877 / 0.4777 / 0.6639 at 35 / 69 / 139 / 278 nM
Protocol: as §3

His-tagged human HER3 [6] = target: T5, His-tagged human HER3; assay: BLI (Octet QK384), antibody on anti-human IgG capture tips, His-tagged human HER3 in solution, global 1:1 fit, R^2 = 0.9915, kon Error 7.36E+03; Response 0.114 / 0.2569 / 0.4134 / 0.5768 at 35 / 69 / 139 / 278 nM
Protocol: as §3

His-tagged human HER3 [7] = target: T5, His-tagged human HER3; assay: BLI (Octet QK384), antibody on anti-human IgG capture tips, His-tagged human HER3 in solution, global 1:1 fit, R^2 = 0.9951, kon Error 5.36E+03; Response 0.0037 / 0.1082 / 0.2868 / 0.3903 at 35 / 69 / 139 / 278 nM
Protocol: as §3

His-tagged human HER3 [8] = target: T5, His-tagged human HER3; assay: BLI (Octet QK384), antibody on anti-human IgG capture tips, His-tagged human HER3 35-278 nM, global 1:1 fit; kdis Error 1.00E-04
Protocol: as §3

His-tagged human HER3 [9] = target: T5, His-tagged human HER3; assay: BLI (Octet QK384), antibody on anti-human IgG capture tips, His-tagged human HER3 in solution, global 1:1 fit, R^2 = 0.9954, kon Error 4.57E+03; Response 0.0786 / 0.1929 / 0.3283 / 0.5147 at 35 / 69 / 139 / 278 nM
Protocol: as §3

His-tagged human HER3 [10] = target: T5, His-tagged human HER3; assay: BLI (Octet QK384), antibody on anti-human IgG capture tips, His-tagged human HER3 35-278 nM, global 1:1 fit; kdis Error 1.16E-04
Protocol: as §3

His-tagged human HER3 [11] = target: T5, His-tagged human HER3; assay: BLI (Octet QK384), antibody on anti-human IgG capture tips, His-tagged human HER3 in solution, global 1:1 fit, R^2 = 0.9957, kon Error 3.54E+03; Response 0.0338 / 0.0911 / 0.1967 / 0.3885 at 35 / 69 / 139 / 278 nM
Protocol: as §3

T1 sequence (Q62799 20-641 limits assumed): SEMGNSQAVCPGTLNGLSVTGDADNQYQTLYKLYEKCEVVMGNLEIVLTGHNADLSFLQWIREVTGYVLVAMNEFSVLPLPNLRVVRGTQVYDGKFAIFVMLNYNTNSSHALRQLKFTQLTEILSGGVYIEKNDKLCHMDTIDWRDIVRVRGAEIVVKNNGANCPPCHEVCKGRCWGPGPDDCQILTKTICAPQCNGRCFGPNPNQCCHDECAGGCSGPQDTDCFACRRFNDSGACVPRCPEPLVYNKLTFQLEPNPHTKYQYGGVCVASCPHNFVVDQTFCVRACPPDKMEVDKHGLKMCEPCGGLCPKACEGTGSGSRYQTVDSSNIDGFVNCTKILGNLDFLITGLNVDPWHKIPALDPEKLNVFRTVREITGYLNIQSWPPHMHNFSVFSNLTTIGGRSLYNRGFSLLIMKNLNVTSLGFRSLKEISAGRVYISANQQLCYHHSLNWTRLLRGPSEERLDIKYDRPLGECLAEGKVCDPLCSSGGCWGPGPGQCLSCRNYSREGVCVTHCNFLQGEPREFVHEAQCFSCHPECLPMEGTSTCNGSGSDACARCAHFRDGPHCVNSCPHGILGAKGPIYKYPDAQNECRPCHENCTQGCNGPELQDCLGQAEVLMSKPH

B1: anti-HER3 clone 4-35-B2 IgG1 (antibody, V domains shown)
VH: EIQLQQSGPELVKPGASVKVSCKASGYSFTDYNMYWVKQSHGKSLEWIGHINPYNGGTTYNQKFKGRATLTVDKSSSTAFMHLNSLTSEDSAVYFCVSLRWGAMDYWGQGTSVTVSS
VL: QIVLTQSPALMSASPGEKVTMTCSASSSVSYMYWYQQKPRSSPKPWIYLTSNLASGVPARFSGSGSGTSYSLTISSMEAEDAATYYCQQWNSNPYTFGGGTKLEIKR
notes: Human-mouse chimeric IgG1/kappa
B1: binds (rat HER3); binds (mouse HER3); binds (human EGFR). For the same binder, the binding result (human HER2) was “binds”, the Kd (His-tagged human HER3 [1]) was 80.9 nM and the “% Parent (HE3 positive)” value [2] was 43.2%. The “% Parent (HE3 positive)” value [3] was 43.2%.

B2: anti-HER3 clone 10D1_c93 IgG1 (antibody, V domains shown)
VH: DVQLQEWGAGLLKPSETLSLTCAVTGYSITSGYSWHWIRQFPGNGLEWIGSIHYSGGTNYNPSLKSRITISRDTSKNQFSLRLSSVTAADTAVYFCARMTTAPRYPFDYWGQGTLVTVSS
VL: DIVMTQSPSSLSASVGDRVTITCKASQIVGSNVAWYQQKPGKSPKPLIYSASYLYSDVPSRFSGSGSGTDFTMTISSLQPEDVATYYCQQYSSHPLTFGPGTKVEIKR
notes: Humanised 10D1 variant, IgG1/kappa
With B2 the Kd (His-tagged human HER3 [1]) was under 0.001 nM, the koff (His-tagged human HER3 [4]) was under 1e-07 s⁻¹ and the kon (His-tagged human HER3 [5]) was 188000 M⁻¹ s⁻¹.

B3: anti-HER3 clone 10D1_c87 IgG1 (antibody, V domains shown)
VH: DVQLQEWGAGLLKPSETLSLTCAVTGYSITSGYSWHWIRQFPGNGLEWIGSIHYSGGTNYNPSLKSRITISRDTSKNQFSLRLSSVTAADTAVYFCARMTTAPRYPFDYWGQGTLVTVSS
VL: DIVMTQSPSSLSASVGDRVTITCKASQIVGSNVAWYQQMPGKSPEPLIYSASYLYSDVPSRFSGSGSGTDFTMTISSLQPEDVATYYCQQYSSHPLTFGPGTKVEIKR
notes: as for B2
B3 was tested, and the Kd (His-tagged human HER3 [1]) was under 0.001 nM, the koff (His-tagged human HER3 [4]) was under 1e-07 s⁻¹ and the kon (His-tagged human HER3 [6]) was 188000 M⁻¹ s⁻¹.

B4: anti-HER3 clone 10D1_c76 IgG1 (antibody, V domains shown)
VH: DVQLQEWGAGLLKPSETLSLTCAVTGYSITSGYSWHWIRQFPGNGLEWIGSIHYSGGTNYNPSLKSRITISRDTSKNQFSLKLSSVTAADTAVYFCARMTTAPRYPFDYWGQGTLVTVSS
VL: DIVMTQSPSSLSASGGDRVTITCKASQIVGYNVAWYQQKPGKSPKPLIYSASYLYSDVPSRFSASGSGTDFTLTISSLQPEDVAEYFCQQYSSHPLTFGPGTKVEIKR
notes: as for B2
B4 showed a Kd (His-tagged human HER3 [1]) of under 0.001 nM, a koff (His-tagged human HER3 [4]) of under 1e-07 s⁻¹ and a kon (His-tagged human HER3 [7]) of 148000 M⁻¹ s⁻¹.

B5: anti-HER3 clone 10D1_11B IgG1 (antibody, V domains shown)
VH: DVQLQEWGAGLLKPSETLSLTCAVYGYSITSGYSWHWIRQPPGKGLEWIGSIHYSGGTNYNPSLKSRVTISRDTSKNQFSLKLSSVTAADTAVYYCARMTTAPRYPFDYWGQGTLVTVSS
VL: DIVMTQSPSSLSASVGDRVTITCKASQIVGSNVAWYQQKPGKSPKPLIYSASYGYSDVPSRFSGSGSGTDFTLTISSLRPEDVATYYCQQYSSHPLTFGPGTKVEIKR
notes: Humanised 10D1 variant, IgG1/kappa; also called v11b78L; C78 v11b
With B5 the Kd (His-tagged human HER3 [1]) was 0.41 nM, the koff (His-tagged human HER3 [8]) was 6.01e-05 s⁻¹ and the kon (His-tagged human HER3 [9]) was 147000 M⁻¹ s⁻¹.

B6: anti-HER3 clone 10D1_c85o2 IgG1 (antibody, V domains shown)
VH: DVQLQEWGAGLLKPSETLSLTCAVTGYSITSGYSWHWIRQFPGKGLEWIGSIRYSGGTNYNPSLKSRITISRDTSKNQFSLKLGSVTAADTAVYFCARGTTAPRYPFDYWGQGTLVTVSS
VL: DIVMTQSPSSLSASVGDRVTITCKASQIVGSNVAWYQQKPGKSPKPLIYSARYQYSGVPFRFSGSGSGTDFTLTISSLQPEDVATYYCQQYSSHPLTFGPGTKVEIKR
notes: Humanised 10D1 variant, IgG1/kappa; also called 10D1_c8502
With B6 the Kd (His-tagged human HER3 [1]) was 17.3 nM, the koff (His-tagged human HER3 [10]) was 0.00168 s⁻¹ and the kon (His-tagged human HER3 [11]) was 97400 M⁻¹ s⁻¹.
